Laboratory results: patent publication US6709838

Each substance was assayed against human Ptch (SEQ ID NO:4), overexpressed on transfected human 293 embryonic kidney cells (human) (UniProt Q13635) (assay: Scatchard analysis of 125I-Shh displacement curves, 293 cells expressing Ptch).

Kd [nM]	Substance
2.6	Dhh (SEQ ID NO:13) (from UniProt Q61488 23-198) (ligand)
1	Ihh (SEQ ID NO:29) (from UniProt P97812 28-202) (ligand)
1	Shh (SEQ ID NO:14), 19kD amino terminal fragment of murine Shh (from UniProt Q62226 25-198) (ligand)
